US20120009199A1 (AstraZeneca / MedImmune, published 2012)

Target: the molecule itself
Experiment: stopped-flow kinetics with light scattering detection, dilution from 10 to 1 mg/ml at 4 C, self-association
Source text: High molecular weight forms are known to cause increased intensity of light scattering compared to monomer. Dissociation of the MabA present in the HPSEC shoulder, (apparent molecular weight of 213 kDa) would, therefore, be expected to result in a decrease in light scattering.

B1: MabA (antibody, human IgG2, V domains shown)
VH: QVQLVESGGGLVKPGGSLRLSCAASGFTFSDYYMNWIRQAPGKGLEWVSYISSSGSIIYYADSVKGRFTISRDNAKNSLYLQMNSLRAEDTAVYYCAREGRIAARGMDVWGQGTTVTVSS
VL: DIQMTQSPSSLSASVGDRVTITCRPSQSFSRYINWYQQKPGKAPKLLIYAASSLVGGVPSRFSGSGSGTDFTLTISSLQPEDFATYYCQQTYSNPPITFGQGTRLEIK
notes: Full-length human IgG2; also called anti-PDGFR-alpha antibody; human IgG2 anti-PDGFR-alpha antibody
  apparent half-life of dissociation of the self-associated species: 14 s
